Source: the supplement of paper PMC12042874
± gives the uncertainty stated by the source.

Assay: amyloid nucleation score (Sup35N fusion, yeast selection) (log enrichment); library NNK1; higher = more nucleation; inactive = no reads after selection
Summary of the method: (§1)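 Peptides of 20 random codons fused to Sup35N were expressed in psi-negative yeast, induced 24 hours with 100 μM copper sulfate, then grown 7 days at 30°C on medium lacking adenine and uracil. Input and output plasmid inserts were Illumina-sequenced. Nucleation score is the DiMSum log enrichment of output over input reads, centred on the mode score of non-aggregating sequences, excluding sequences with under 100 input reads. Random libraries had three technical output replicates.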

Row | Substance | amyloid nucleation score
1 | ARTRVLMKQVQGFKSFTILH | 0.192 ± 0.52
2 | ARVNVWAVGWSENNSNLKI | 0.916 ± 0.24
3 | ARYGVSGHAYDTNPRRYFGQ | -0.903 ± 2.4
4 | ASEVCKY | 0.375 ± 0.79
5 | ASKFYHFRTQEYTS | 0.212 ± 0.28
6 | ASKKGPWFYSAVSYGLA | -0.128 ± 0.34
7 | ASLTDVYIDELRLSNEGTWN | 1.94 ± 0.65
8 | ASLVDVGSP | 0.215 ± 0.32
9 | ASRRSSHHSGRMHRAQLSGF | -1.5 ± 1.8
10 | ASSVSMFFYIWFLDAHVGYL | 0.364 ± 0.33
11 | ASVAHLCGQLTVDTGFRITG | 0.138 ± 0.33
12 | ASYGIIVSSLFFNGRGCHWS | 3.81 ± 0.096
13 | ATCPLYEVLSCYARVKFANT | -0.357 ± 0.33
14 | ATFSFGRT | inactive
15 | ATGTSWYVPGRVGLCGYWLI | -0.153 ± 0.23
16 | ATHKNWIKRDTVHSLDGC | 0.041 ± 0.26
17 | ATLLFRFV | 0.831 ± 0.64
18 | ATRSMEAIIMRELWYIDPVY | 0.831 ± 0.87
19 | AVCSMKKSVMYELNVGFTYR | inactive
20 | AVFHRREVRELAHRQPLLPI | 1.03 ± 0.66
21 | AVFIGCVNAGS | 0.621 ± 0.39
22 | AVFLY | -0.153 ± 0.33

Row | Substance | amyloid nucleation score
23 | AVLIRSGCRIRNRRHG | 0.782 ± 0.75
24 | AVLKGYRWACMVFLSGFGRC | 0.243 ± 0.41
25 | AVLLCRSESCCKYSAIANSG | -1.22 ± 0.69
26 | AVMMHDTVGVHW | -0.609 ± 0.6
27 | AVSIWSPRIGVCETFQLDVV | -0.573 ± 0.57
28 | AVSSYYVERRYLNLQGANRY | 3.22 ± 0.15
29 | AWMGLKNVN | 1.59 ± 0.69
30 | AWYMPIWFLAYFL | 1.24 ± 0.14
31 | AYAGLRCVGSDVIAGKTVAN | 0.684 ± 1.2
32 | AYCLRN | 0.211 ± 0.68
33 | AYFMVHLLIF | 1.34 ± 0.13
34 | AYNFRSRRWMLFGYNWVSAP | 1.59 ± 0.51
35 | AYNLLYN | 1.59 ± 0.69
36 | AYVDAL | 1.53 ± 0.48
37 | AYVRGCLFILPFRPTQV | 1.42 ± 0.14
38 | CAFEAGLWTSDFLNEPVYHY | -0.126 ± 0.3
39 | CCDIEITLSHGVIGICSRKT | 0.844 ± 0.26
40 | CCDVHGCVGNMLSFTGILLF | 3.54 ± 0.076
41 | CCGGECLRVYRIMLGTVECT | 0.329 ± 0.28
42 | CCHRGCGAFVGWMHQFGWYI | -0.186 ± 0.42
43 | CCIFIDFTVIALGRTLVVRH | -1.17 ± 1.2
44 | CCPDSQIIRYNIYAVVYLRM | 1.92 ± 0.57

Row | Substance | amyloid nucleation score
45 | CCVNVPIFRRKFGTCSCKAW | 0.065 ± 0.93
46 | CDEGWEESNSTD | -0.522 ± 1.6
47 | CDERNNAFLGVFGSS | -0.288 ± 0.47
48 | CDGLLYELRSVEWGKGKLNG | 0.438 ± 0.38
49 | CDGNHSRSLRLIDLGPGF | -0.558 ± 1.1
50 | CDLFSRACGSAMDTYNKSHI | -1.01 ± 0.9
51 | CDNDSMWGYCLTTRMGRFTA | -0.379 ± 0.59
52 | CDNRRNFSSWVVDISKYITI | -0.946 ± 0.57
53 | CDRLIKVSYRFIGAADRRWM | 1.35 ± 0.76
54 | CDSVV | -0.221 ± 0.73
55 | CDWGN | 1.14 ± 0.93
56 | CEVSIVSLARYVGREDLFDR | 0.213 ± 0.65
57 | CFCFFIVSPMMF | 3.89 ± 0.056
58 | CFCFKPSVKE | -1.71 ± 2.4
59 | CFDNSFTFPPDG | 0.066 ± 0.3
60 | CFFPIRDQQCTRSYHFSDHM | 0.727 ± 0.63
61 | CFIIIQPCANGWWYRCRSCV | -0.236 ± 0.38
62 | CFKFARGGVLI | 1.32 ± 0.66
63 | CFLYNSFYILDISELLQGST | 4.81 ± 0.049
64 | CFMETYSWKVRYTLFHKLST | 0.552 ± 0.79
65 | CFNMFT | -0.607 ± 0.76
66 | CFPDICWHSVK | 0.125 ± 0.79

Assay: amyloid nucleation score (Sup35N fusion, yeast selection) (log enrichment); library NNK2; higher = more nucleation; inactive = no reads after selection
Summary of the method: as §1

Row | Substance | amyloid nucleation score
67 | NVFSS | -0.42 ± 0.35
68 | YWACDTFSILVLGNTVDSLD | inactive
69 | YWELDCTGYEGGMIRREWEI | 0.586 ± 0.81
70 | YWFARCHFSPAMRIYYRTRA | -0.171 ± 0.62
71 | YWGGLCHLMSYRFTCIKYVG | -0.698 ± 0.64
72 | YWLNMWFYRSSASYRSMDMD | -0.713 ± 0.55
73 | YWSICPCCFLVSFSDTSWKG | 8.138 ± 0.057
74 | YWSVV | 3.73 ± 0.11
75 | YYFDPS | -0.961 ± 0.62
76 | YYIALWVVGHMGYIDGCTSC | 2.45 ± 0.1
77 | YYKKTVVPYRLYAGLELIAT | -0.607 ± 0.48
78 | YYLFGKF | -0.509 ± 1.1
79 | YYLGWIMLVHYGSWTTCLVR | 0.531 ± 0.64
80 | YYQVVTNNLSI | 0.129 ± 0.76
81 | YYRRNKIWSVSQQWGGIRSR | 0.596 ± 0.62
82 | YYSFPISIGWVSNCMFVWEV | 6.53 ± 0.073
83 | YYSPQSVKEYPRNTYRLIKA | -0.613 ± 0.45
84 | YYSVGNAGL | -1.3 ± 0.39
85 | YYTCTLSRWRQSAYLGGRLR | 0.284 ± 0.26
86 | YYTLWVTLTRLTNC | -0.288 ± 0.5
